Experimental data published in paper PMC4199230.

Target: 6X-His-PTPROt-CS/DA
Experiment: pull-down

Row | Substance | percent reduction of binding against WT VCP [%]
1 | HA-tagged VCP Y796F (from UniProt P55072 1-806) (natural protein) | 50
2 | HA-tagged VCP Y796F/Y805F (from UniProt P55072 1-806) (natural protein) | > 90
3 | HA-tagged VCP Y805F (from UniProt P55072 1-806) (natural protein) | > 90
